Data reported in patent US20250043302A1, “MUTATED HYDROXYPHENYLPYRUVATE DIOXYGENASE POLYPEPTIDE, AND CODING GENE AND USE THEREOF” (BEIJING DABEINONG BIOTECHNOLOGY CO., LTD., priority 2021, published 2025).

What was measured:
Format in all cases: in vivo
[1] = test system: Arabidopsis thaliana T1 plants; assay: Mesotrione tolerance of transgenic Arabidopsis thaliana T1 plants (spray, bleached leaf area grade, damage score); parameters: Scores: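 damage score 0-100 computed as Σ(N×S)/(T×M)×100 over grades 0-3 with higher meaning more damage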; details: Arabidopsis thaliana T1 plants; for Grade 0 (classification and statistics of the grade of pesticide damage; number of plants) / Grade 1 (classification and statistics of the grade of pesticide damage; number of plants) / Grade 2 (classification and statistics of the grade of pesticide damage; number of plants) / Grade 3 (classification and statistics of the grade of pesticide damage; number of plants): 16 plants
Outline: (§1)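 Read-out: per-plant damage grade 0–3 from proportion of bleached leaf area at 7 DAT (1 <50%, 2 >50%, 3 100%). Plants were T1 transformants, glufosinate-selected, plus wild-type CK, sprayed 18 days post-sowing. Rates: topramezone 25–200, isoxaflutole 35–280, mesotrione 52.5–420 g ai/ha.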

[2] = test system: Arabidopsis thaliana T1 plants; assay: Topramezone tolerance of transgenic Arabidopsis thaliana T1 plants (spray, bleached leaf area grade, damage score); details: 7 DAT, Table 4; for Classification and statistics of the grade of pesticide damage: Grade 0 / Classification and statistics of the grade of pesticide damage: Grade 1 / Classification and statistics of the grade of pesticide damage: Grade 2 / Classification and statistics of the grade of pesticide damage: Grade 3: number of plants; for Scores: pesticide damage score 0-100
Outline: as §1

[3] = test system: Arabidopsis thaliana T1 plants; assay: Isoxaflutole tolerance of transgenic Arabidopsis thaliana T1 plants (spray, bleached leaf area grade, damage score); parameters: Scores (pesticide damage): scale not given here; details: spray, Arabidopsis thaliana T1 plants; for Classification and statistics of the grade of pesticide damage: Grade 0 (number of plants) / Classification and statistics of the grade of pesticide damage: Grade 1 (number of plants) / Classification and statistics of the grade of pesticide damage: Grade 2 (number of plants) / Classification and statistics of the grade of pesticide damage: Grade 3 (number of plants): 16 plants
Outline: as §1

[4] = isoxaflutole 35 g ai/ha (0.5x field concentration)
[5] = isoxaflutole 70 g ai/ha (1x field concentration)

B1: GsHPPDm-F372A-02: nucleotide sequence encoding Gossypium hirsutum HPPD with F372A; vector DBN11739 (nucleic acid)
DNA: ATGGTTCAAACAAATCAATCTGGTTCTGGGAATGATTTCAAGCTGGTTGGTTTCTCAAATTTTGTGCGTAGCAATCCCAAATCAGACCGCTTCACGGTCAAGAGATTCCACCACATTGAATTTTGGTGCACTGATGCCACTAATGTGGCGAGGAGGTTTTCATGGGGTTTAGGGATGCAGTTCGTCGCCAAGAGTGACCTCTCCACAGGAAATTTGACGCATGCAAGCTACCTGCTGCGGAGCCGCGACTTGAATTTCCTGTTTACAGCACCATATTCACCCAGTATTGCAGTTGCTCAAAACCTTTCGCCACAAAGCACTGCTTCCATACCTTCATTTGATCACTCGCTTTGTCGGTCCTTTGCTGCAACACATGGACTTGGCGTCAGAGCAATTGCCATCGAGGTGGACGACGCCGAAACTGCCTTCACCACGAGCGTGACACATGGCGCGCTCCCTTTTTGTCCACCAACACCACTAGGAGATGTGGCTACAATTGCTGAAGTTAAATTATATGGTGATGTTGTGCTCAGATATGTTTCTTACACCACAACCATCAACTCCGACCATGATTTTCTGCCTGGTTTTGAGAAGATTGAAGATACTCTATCGTATCCTTTGGATTATGGCCTGCGTCGGCTCGATCATGCTGTTGGCAACGTACCTGAATTAGGTCCTGCTGTATCTTATGTGAAATCTTTTACTGGGTTCCATGAGTTTGCAGAGTTCACCGCTGAGGATGTAGGAACAAGTGAATCTGGGCTGAACTCAGTTGTTTTGGCCAACAATGAGGAAATGGTCCTCTTACCAATGAACGAGCCGGTGTTCGGCACTAAGCGCAAATCTCAAATACAGACCTACTTGGAGCACAATGAAGGAGCTGGTGTGCAGCACCTCGCCCTCGTCTCGGAGGACATCTTCAAAACTTTAAGGGAGATGAGGAAACGATCCTTTGTGGGAGGATTTGAATTCATGCCTTCTCCGCCGCCGACATACTACAAGAAGCTCAAGCAGCGCGCGGGGGACATTTTGTCTGATGAGCAGATCAAGGAGTGTGAAGAGCTTGGGATTCTTGTTGATAGAGATGATCAAGGAACGCTTCTGCAGATAGCCACCAAGCCCGTCGGCGACCGGCCTACTATATTCATTGAGATCATCCAGAGAATTGGTTGCATGGTGAAGGATGAAGAAGGGAAACAGTACCAGAAGGGCGGCTGCGGCGGGTTTGGAAAAGGAAACTTCAGTGAGCTGTTTAAAAGTATAGAGGAGTATGAAAAGAGCTTGGAAGCAAAACAATCACAAAATCCATGA
modifications: GsHPPDm-F372A-02 Nucleotide Sequence
notes: vector DBN11739
- Resistance evaluation ([1]; mesotrione 52.5 g ai/ha): Poorly resistant
- Scores ([1]; mesotrione 52.5 g ai/ha): 54
- Grade 0 (classification and statistics of the grade of pesticide damage; number of plants) ([1]; mesotrione 52.5 g ai/ha): 0
- Grade 1 (classification and statistics of the grade of pesticide damage; number of plants) ([1]; mesotrione 52.5 g ai/ha): 8
- Grade 2 (classification and statistics of the grade of pesticide damage; number of plants) ([1]; mesotrione 52.5 g ai/ha): 6
- Grade 3 (classification and statistics of the grade of pesticide damage; number of plants) ([1]; mesotrione 52.5 g ai/ha): 2
- Resistance evaluation ([1]; mesotrione 105 g ai/ha): Non-resistant
- Scores ([1]; mesotrione 105 g ai/ha): 100
- Grade 0 (classification and statistics of the grade of pesticide damage; number of plants) ([1]; mesotrione 105 g ai/ha): 0
- Grade 1 (classification and statistics of the grade of pesticide damage; number of plants) ([1]; mesotrione 105 g ai/ha): 0
- Grade 2 (classification and statistics of the grade of pesticide damage; number of plants) ([1]; mesotrione 105 g ai/ha): 0
- Grade 3 (classification and statistics of the grade of pesticide damage; number of plants) ([1]; mesotrione 105 g ai/ha): 16
- Classification and statistics of the grade of pesticide damage: Grade 0 ([2]; topramezone 25 g ai/ha (1×)): 16
- Classification and statistics of the grade of pesticide damage: Grade 1 ([2]; topramezone 25 g ai/ha (1×)): 0
- Classification and statistics of the grade of pesticide damage: Grade 2 ([2]; topramezone 25 g ai/ha (1×)): 0
- Classification and statistics of the grade of pesticide damage: Grade 3 ([2]; topramezone 25 g ai/ha (1×)): 0
- Classification and statistics of the grade of pesticide damage: Grade 0 ([2]; topramezone 100 g ai/ha (4×)): 0
- Classification and statistics of the grade of pesticide damage: Grade 1 ([2]; topramezone 100 g ai/ha (4×)): 0
- Classification and statistics of the grade of pesticide damage: Grade 2 ([2]; topramezone 100 g ai/ha (4×)): 0
- Classification and statistics of the grade of pesticide damage: Grade 3 ([2]; topramezone 100 g ai/ha (4×)): 16
- Scores ([2]; topramezone 25 g ai/ha (1×)): 0
- Scores ([2]; topramezone 100 g ai/ha (4×)): 100
- Resistance evaluation ([2]; topramezone 25 g ai/ha (1×)): highly
- Resistance evaluation ([2]; topramezone 100 g ai/ha (4×)): non-resistant (non-resistant plants (scores 68-100))
- Resistance evaluation [3, 4]: Moderately
- Scores (pesticide damage) [3, 4]: 33
- Classification and statistics of the grade of pesticide damage: Grade 0 (number of plants) [3, 4]: 3
- Classification and statistics of the grade of pesticide damage: Grade 1 (number of plants) [3, 4]: 10
- Classification and statistics of the grade of pesticide damage: Grade 2 (number of plants) [3, 4]: 3
- Classification and statistics of the grade of pesticide damage: Grade 3 (number of plants) [3, 4]: 0
- Resistance evaluation [3, 5]: Non-resistant
- Scores (pesticide damage) [3, 5]: 100
- Classification and statistics of the grade of pesticide damage: Grade 0 (number of plants) [3, 5]: 0
- Classification and statistics of the grade of pesticide damage: Grade 1 (number of plants) [3, 5]: 0
- Classification and statistics of the grade of pesticide damage: Grade 2 (number of plants) [3, 5]: 0
- Classification and statistics of the grade of pesticide damage: Grade 3 (number of plants) [3, 5]: 16
